The text below walks through data of patent US20260167721A1 (ABLEXIS, published 2026).

Assay [1] concerns the target T1, recombinant CD3 proteins (UniProt P07766 23-126).
T1 construct: elsewhere it uses human CD3 E/D and E/G heterodimers
The assay is described as follows: Octet BLI, recombinant CD3; Full R^2 0.9968.

In assay [2] the target is T1, recombinant CD3 proteins. The assay is described as follows: Octet BLI, recombinant CD3; Full R^2 0.9872.
For assay [3], the target named is T1, recombinant CD3 proteins. The assay is described as follows: Octet BLI, recombinant CD3; Full R^2 0.9986.
Assay [4] has as its target T1, recombinant CD3 proteins. The assay is described as follows: Octet BLI, recombinant CD3; Full R^2 0.9966.
Assay [5] addresses T1, recombinant CD3 proteins. The assay is described as follows: Octet BLI, recombinant CD3; Full R^2 0.998.

T1 sequence (P07766 23-126): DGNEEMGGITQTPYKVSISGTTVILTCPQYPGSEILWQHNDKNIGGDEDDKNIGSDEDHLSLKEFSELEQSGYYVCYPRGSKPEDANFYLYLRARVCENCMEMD

B1: CD3 × CD33-BspAb90 (bispecific antibody)
chain 1: not shown
chain 2: EVQLVQSGAEVKKPGSSVKVSCKASGYTITDSNIHWVRQAPGQSLEWIGYIYPYNGGTDYNQKFKNRATLTVDNPTNTAYMELSSLRSEDTAFYYCVNGNPWLAYWGQGTLVTVSSASTKGPSVFPLAPSSKSTSGGTAALGCLVKDYFPEPVTVSWNSGALTSGVHTFPAVLQSSGLYSLSSVVTVPSSSLGTQTYICNVNHKPSNTKVDKRVEPKSCDKTHTCPPCPAPEFEGGPSVFLFPPKPKDTLMISRTPEVTCVVVDVSHEDPEVKFNWYVDGVEVHNAKTKPREEQYNSTYRVVSVLTVLHQDWLNGKEYKCKVSNKALPASIEKTISKAKGQPREPQVCTLPPSREEMTKNQVSLSCAVKGFYPSDIAVEWESNGQPENNYKTTPPVLDSDGSFFLVSKLTVDKSRWQQGNVFSCSVMHEALHNRFTQKSLSLSPGK
chain 3: DIQLTQSPSTLSASVGDRVTITCRASESLDNYGIRFLTWFQQKPGKAPKLLMYAASNQGSGVPSRFSGSGSGTEFTLTISSLQPDDFATYYCQQTKEVPWSFGQGTKVEVKRTVAAPSVFIFPPSDEQLKSGTASVVCLLNNFYPREAKVQWKVDNALQSGNSQESVTEQDSKDSTYSLSSTLTLSKADYEKHKVYACEVTHQGLSSPVTKSFNRGEC
Turning to B1, in the assay with recombinant CD3 proteins [1], the Kd is 334 nM, the koff is 0.00459 s⁻¹ and the kon was found to be 13800 M⁻¹ s⁻¹.

B2: CD3 × CD33-BspAb93 (bispecific antibody)
chain 1: NFMLTQPHSVSESPGKTVTISCTRSSGSIASKYVQWYQQRPGSSPTTVIYEDNQRPSGVPDRFSGSIDSSSNSASLTISGLKTEDEADYYCQSYYSNNRVFGCGTKLTVLGGGGSGGGGSGGGGSGGGGSEVQLVESGGGLVQPGGSLRLSCAASGFTFSRYSMNWVRQAPGKCLEWVSYISRSSTTIYYADSVKGRFTISRDNAKNSLYLQMNSLRDEDAAVYYCARERWELLYFDYWGQGTLVTVSSDKTHTCPPCPAPEFEGGPSVFLFPPKPKDTLMISRTPEVTCVVVDVSHEDPEVKFNWYVDGVEVHNAKTKPREEQYNSTYRVVSVLTVLHQDWLNGKEYKCKVSNKALPASIEKTISKAKGQPREPQVYTLPPCREEMTKNQVSLWCLVKGFYPSDIAVEWESNGQPENNYKTTPPVLDSDGSFFLYSKLTVDKSRWQQGNVFSCSVMHEALHNHYTQKSLSLSPGK
chain 2: EVQLVQSGAEVKKPGSSVKVSCKASGYTITDSNIHWVRQAPGQSLEWIGYIYPYNGGTDYNQKFKNRATLTVDNPTNTAYMELSSLRSEDTAFYYCVNGNPWLAYWGQGTLVTVSSASTKGPSVFPLAPSSKSTSGGTAALGCLVKDYFPEPVTVSWNSGALTSGVHTFPAVLQSSGLYSLSSVVTVPSSSLGTQTYICNVNHKPSNTKVDKRVEPKSCDKTHTCPPCPAPEFEGGPSVFLFPPKPKDTLMISRTPEVTCVVVDVSHEDPEVKFNWYVDGVEVHNAKTKPREEQYNSTYRVVSVLTVLHQDWLNGKEYKCKVSNKALPASIEKTISKAKGQPREPQVCTLPPSREEMTKNQVSLSCAVKGFYPSDIAVEWESNGQPENNYKTTPPVLDSDGSFFLVSKLTVDKSRWQQGNVFSCSVMHEALHNRFTQKSLSLSPGK
chain 3: DIQLTQSPSTLSASVGDRVTITCRASESLDNYGIRFLTWFQQKPGKAPKLLMYAASNQGSGVPSRFSGSGSGTEFTLTISSLQPDDFATYYCQQTKEVPWSFGQGTKVEVKRTVAAPSVFIFPPSDEQLKSGTASVVCLLNNFYPREAKVQWKVDNALQSGNSQESVTEQDSKDSTYSLSSTLTLSKADYEKHKVYACEVTHQGLSSPVTKSFNRGEC
In the case of B2, in the assay with recombinant CD3 proteins [2], the Kd is 14.8 nM, the koff stood at 0.00516 s⁻¹ and the kon is 349000 M⁻¹ s⁻¹.

B3: CD3 × CD33-BspAb92 (bispecific antibody)
chain 1: not shown
chain 2: EVQLVQSGAEVKKPGSSVKVSCKASGYTITDSNIHWVRQAPGQSLEWIGYIYPYNGGTDYNQKFKNRATLTVDNPTNTAYMELSSLRSEDTAFYYCVNGNPWLAYWGQGTLVTVSSASTKGPSVFPLAPSSKSTSGGTAALGCLVKDYFPEPVTVSWNSGALTSGVHTFPAVLQSSGLYSLSSVVTVPSSSLGTQTYICNVNHKPSNTKVDKRVEPKSCDKTHTCPPCPAPEFEGGPSVFLFPPKPKDTLMISRTPEVTCVVVDVSHEDPEVKFNWYVDGVEVHNAKTKPREEQYNSTYRVVSVLTVLHQDWLNGKEYKCKVSNKALPASIEKTISKAKGQPREPQVCTLPPSREEMTKNQVSLSCAVKGFYPSDIAVEWESNGQPENNYKTTPPVLDSDGSFFLVSKLTVDKSRWQQGNVFSCSVMHEALHNRFTQKSLSLSPGK
chain 3: DIQLTQSPSTLSASVGDRVTITCRASESLDNYGIRFLTWFQQKPGKAPKLLMYAASNQGSGVPSRFSGSGSGTEFTLTISSLQPDDFATYYCQQTKEVPWSFGQGTKVEVKRTVAAPSVFIFPPSDEQLKSGTASVVCLLNNFYPREAKVQWKVDNALQSGNSQESVTEQDSKDSTYSLSSTLTLSKADYEKHKVYACEVTHQGLSSPVTKSFNRGEC
B3: in the assay with recombinant CD3 proteins [3], the dissociation constant Kd was found to be 43.8 nM, the koff came out at 0.00051 s⁻¹ and the kon turned out to be 11600 M⁻¹ s⁻¹.

B4: CD3 × CD33-BspAb94 (bispecific antibody)
chain 1: NFMLTQPHSVSESPGKTVTISCTRSSGSIASNYVQWYQQRPGSSPTTVIYEDNQRPSGVPDRFSGSIDSSSNSASLTISGLKTEDEADYYCQSYDSSNRVFGCGTKLTVLGGGGSGGGGSGGGGSGGGGSEVQLVESGGGLVKPGGSLRLSCAASGFTFSSYTMNWVRQAPGKCLEWVSSITTSSSYIYYADSVKGRFTISRDNAKNSLYLQMNSLRAEDTAVYYCARVTFDAFDIWGQGTMVTVSSDKTHTCPPCPAPEFEGGPSVFLFPPKPKDTLMISRTPEVTCVVVDVSHEDPEVKFNWYVDGVEVHNAKTKPREEQYNSTYRVVSVLTVLHQDWLNGKEYKCKVSNKALPASIEKTISKAKGQPREPQVYTLPPCREEMTKNQVSLWCLVKGFYPSDIAVEWESNGQPENNYKTTPPVLDSDGSFFLYSKLTVDKSRWQQGNVFSCSVMHEALHNHYTQKSLSLSPGK
chain 2: EVQLVQSGAEVKKPGSSVKVSCKASGYTITDSNIHWVRQAPGQSLEWIGYIYPYNGGTDYNQKFKNRATLTVDNPTNTAYMELSSLRSEDTAFYYCVNGNPWLAYWGQGTLVTVSSASTKGPSVFPLAPSSKSTSGGTAALGCLVKDYFPEPVTVSWNSGALTSGVHTFPAVLQSSGLYSLSSVVTVPSSSLGTQTYICNVNHKPSNTKVDKRVEPKSCDKTHTCPPCPAPEFEGGPSVFLFPPKPKDTLMISRTPEVTCVVVDVSHEDPEVKFNWYVDGVEVHNAKTKPREEQYNSTYRVVSVLTVLHQDWLNGKEYKCKVSNKALPASIEKTISKAKGQPREPQVCTLPPSREEMTKNQVSLSCAVKGFYPSDIAVEWESNGQPENNYKTTPPVLDSDGSFFLVSKLTVDKSRWQQGNVFSCSVMHEALHNRFTQKSLSLSPGK
chain 3: DIQLTQSPSTLSASVGDRVTITCRASESLDNYGIRFLTWFQQKPGKAPKLLMYAASNQGSGVPSRFSGSGSGTEFTLTISSLQPDDFATYYCQQTKEVPWSFGQGTKVEVKRTVAAPSVFIFPPSDEQLKSGTASVVCLLNNFYPREAKVQWKVDNALQSGNSQESVTEQDSKDSTYSLSSTLTLSKADYEKHKVYACEVTHQGLSSPVTKSFNRGEC
Regarding B4, in the assay with recombinant CD3 proteins [4], the Kd worked out at 645 nM, the koff is 0.0738 s⁻¹ and the kon amounted to 115000 M⁻¹ s⁻¹.

B5: CD3 × CD33-BspAb91 (bispecific antibody)
chain 1: DIQMTQSPSTLSASVGDRVTITCRASQSISSWLAWFQQKTGKAPKLLIYKASSLESGVPSRFSGSGSGTEFTLTISSLQPDDFATYYCQQYISYSWTFGCGTKVEIKGGGGSGGGGSGGGGSGGGGSEVQLVESGGGLVQRGGSLRLSCAASGFTFSNYWMSWVRQAPGKCLEWVANIKEDGSEKYYVDSVKGRFTISRDNAKHSLYLQMNSLRAEDTAVYYCARERRTGYFDYWGQGTLVTVSSDKTHTCPPCPAPEFEGGPSVFLFPPKPKDTLMISRTPEVTCVVVDVSHEDPEVKFNWYVDGVEVHNAKTKPREEQYNSTYRVVSVLTVLHQDWLNGKEYKCKVSNKALPASIEKTISKAKGQPREPQVYTLPPCREEMTKNQVSLWCLVKGFYPSDIAVEWESNGQPENNYKTTPPVLDSDGSFFLYSKLTVDKSRWQQGNVFSCSVMHEALHNHYTQKSLSLSPGK
chain 2: EVQLVQSGAEVKKPGSSVKVSCKASGYTITDSNIHWVRQAPGQSLEWIGYIYPYNGGTDYNQKFKNRATLTVDNPTNTAYMELSSLRSEDTAFYYCVNGNPWLAYWGQGTLVTVSSASTKGPSVFPLAPSSKSTSGGTAALGCLVKDYFPEPVTVSWNSGALTSGVHTFPAVLQSSGLYSLSSVVTVPSSSLGTQTYICNVNHKPSNTKVDKRVEPKSCDKTHTCPPCPAPEFEGGPSVFLFPPKPKDTLMISRTPEVTCVVVDVSHEDPEVKFNWYVDGVEVHNAKTKPREEQYNSTYRVVSVLTVLHQDWLNGKEYKCKVSNKALPASIEKTISKAKGQPREPQVCTLPPSREEMTKNQVSLSCAVKGFYPSDIAVEWESNGQPENNYKTTPPVLDSDGSFFLVSKLTVDKSRWQQGNVFSCSVMHEALHNRFTQKSLSLSPGK
chain 3: DIQLTQSPSTLSASVGDRVTITCRASESLDNYGIRFLTWFQQKPGKAPKLLMYAASNQGSGVPSRFSGSGSGTEFTLTISSLQPDDFATYYCQQTKEVPWSFGQGTKVEVKRTVAAPSVFIFPPSDEQLKSGTASVVCLLNNFYPREAKVQWKVDNALQSGNSQESVTEQDSKDSTYSLSSTLTLSKADYEKHKVYACEVTHQGLSSPVTKSFNRGEC
With B5, in the assay with recombinant CD3 proteins [5], the Kd worked out at 63.8 nM, the koff stood at 0.00203 s⁻¹ and the on-rate constant (kon) was 31900 M⁻¹ s⁻¹.
